# Test results from the domain aggregation screens of Martell et al. (2025).
# Test: soluble fraction after stress (log2 fold change); higher = more stays soluble; pooled small domains, quantitative proteomics
# Conditions: stress: 50 degC
# How it was run: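 Custom libraries of small protein domains were pooled and measured in a high-throughput format, with quantitative proteomics as the read-out. Each library was stressed at 50°C. The value is the log2 fold change in the amount of each protein that stays soluble after stress, used as a measure of aggregation propensity; higher values mean more of the protein stays soluble.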
row,Sequence,soluble fraction (log2)
1,HMNKITIDQAKEIALNHAKLTAEQVSFIRTESEFDDGIEKYNIEFYYNNQKYDYDINAVNGQIIQYDLEG,-0.0582
2,HMNLLDYTTLYVTSDGKSVSFGIAGKEIPVSYIAQEAPGTVVIDDTIRIPRKYDMEYILKRFNES,-1.03
3,HMVKLSDGIVEHIKSLIMAGRLKPGDKLPPEREFAATLGVSRTALREAVRTLSLMGLLDARQGEGTFVSG,-0.116
4,HMAVVIPDVKGMTIEEAAPFLAEKGIRYNIIDSVFSKDVDPGAIVEIVPTPGSKVKEGRIVFVTINAK,-0.538
5,HMVMSVGENIAYFRKKLGLTQEMLSERIGVTAQAVSKWENGVTNPDISLLPRISEALGIGIGDLFD,-0.299
6,HMVKSIDEIYNEAVKSLANEDYDAAKKLFNYLINNFSDPDKFPLSLFWLAEIEFSSSNFDASKNYYMQ,0.0746
7,HMSNYYNILGVNKSSTQDEIKKAFRKKAVEHHPDKGGNEATFKKINEAYNTLSDNNKRHMYDMQQSG,0.213
8,HMATAATGIINNNYVNVRSGPATTYNIVGRLDQGSSIEILGSKNDWYQIKTKQLNGWVKNDFINLQK,0.00222
9,HMGIKDRIVYIMEKEKLSIPLFAKKIGIGPSTLLHIIRGKNAPSLQVVQAIHKAYPDIDLNWLI,-1.08
10,HMDRAIAAHLEARVRDALKQLSPEQTRVIELFFFDNKTHAEIENDLKIPLGTVKSRLRLALNKLRASL,-1.96
11,HMTMVLPDAARDKLKAIGLSIEHVEPSPVKDIFTVISREGVSYVSKDGDYIFTGSLFHVKGKDVVNTTEQA,0.128
12,HMFAERLKELRKMRRFSQHALAERLGISQQAVGKWETGKSTPDPATLREIADIFEVSVDLLLGR,-0.247
13,HMTKVKIDRLFSIVQMLVNRKSVTAKELADYFNVSVRTIYRDIEILSANGIPIYATQGKGGGISILEN,-1.05
14,HMITLYDLLGVSKTASSQEIKTAFKKKALQYHPDKNDGNPDKEEIFKRINMAYQVLGQPQSRANYDFSITP,-0.321
15,HMSRVKQERLNRFVEAFEAYFRSVHPGEIDVEYLKSDEFGDIFESILHRVMHTASEEKMHRFKKILLNEM,-2.13
16,HMVESLTDRELQILSLAAKGYTNKAIAVQLGISDRTVQNHLANTFQKLNAESRTEAVMRAVSLGLISA,-0.213
17,HMSLGTDVVPDFTGKGIKEAKTEFAAYSEGELYIIGEGEKVKEQFPLPGEKVNKNSDLILYV,0.101
18,HMVAGQDPVKRQQILDGAKRVFLGVGFDAASMNDITREAGVSKGTIYVYFGSKEELFGALIDR,-0.663
19,HMELAALKILNSPIGKIAIGTSENGLVKLDILTSGQTRAEFSDLPKAHKLALDAADQLAAYF,0.0579
20,HMPRQREVPDVSGWTEQHAKVYLEALGYRVKVIYLEVSSFDKGLVQETSPAKGSKVEEGDTIDLRVSNQE,-0.367
21,HMQKRDQKKRANMLDSLKVGTRIVTIGGIFGEIAKIKDDRIRIKVAEDVEIWIRRAAVGTVIT,-0.207
22,HMSDVTPDVVRALRKRLKLTQVQFGEIFGMTSKKVSAWEHGKAEPTEEQKQKIQSLLKENNEQ,-0.0029
23,HMLFKNASGTVVSRIQSQVDGQINIRTGSGNAPDYAFVAKPDGAVELYHNGTKQFETGSSGVLLP,-0.274
24,HMAESLHVTAAALFEGRAMLGIDGSRRLLRVGETSPEGVKLVSATAREAVIEIDGRRQTLAPGRDT,0.0658
25,HMIQNEITLMLQVNGKLRGQIQVPSDASKEQIEQLAKDSEAAQKALAGASPKKIIVVPGRLVNIV,-0.092
26,HMYEGLILINKYDSLVSAKLETNKIKSLGLFFEDMEEKIAVFSGPFKNNDINLKLDFLIRNGYLDAKIY,-4.51

row,Sequence,soluble fraction (log2)
1,HMGLKQADFEELASRIFTVLEEKSMTPAEIVRKLNLEPDRISIVIQYLLDEGKLNIKDGFINNSA,-0.107
2,HMQFLGKVTVTHARQANLRAQPSMDAAIVGKVNPGEVYNVVSIPKTSWYEIQLQNGKTVFIAAGMVSFRM,-0.557
3,HMIAKIEGQISYVGNRFLIVDVSGVGYKLFVTNEAISLSKVEESIKLWVHTAVRENSIDLYG,-0.7
4,HMSAPNPGQMHSWTDTQGRTLQATFIKADATTVTLNWNGRIVPIPLANLNAASQKLARELASAS,0.181
5,HMVSKIEAPLPGIILSVDVKEGDTVKAGDKLMVMEAMKMENAILAETNGVVKSIKVKIQDSVLQGDILAEI,-0.171
6,HMDFRQALNTSADSDANKVALLESIVKGKYVSSTVNLLRRVITLRRGRSIDATLAAYSHYVSIR,0.313
7,HMKSPAQAAALKKLWAAIKQNEQGEVVEVLFHNRKLTDAGLVHLKGLANLQTLNLYDTKITGAGLVHL,0.0876
8,HMRLARPLTPTEERVLRLLASDMSNAKIGEVLGIRLPTVKSHVSHIMQKLGVTSRAKARTAAQQLGI,-0.887
9,HMNREEKKALTRRQIIDVATRLFRQHGIHNTDLKTIATEAGVSVVTFYKYFDSKEALIGTIAAEQ,-0.281
10,HMYMWQVEDLIRANGLDIERIKDSIIRPYELDEERKRELTQWYEDLIDMMRREGVAQSGHLQIN,-2.45
11,HMSLIDLLQLNRKSKKLTLMNLVEMTGLSYGKVYRIFNGGIDKPTPDSLKLLAKALQLDYSYLFHKAGYL,-0.161
12,HMRTFFEIEQLKAYVGEEIQVKFEADSHKQTVLGKLISISEDFIEIENSKKGNLKISLDNYLTSKLIY,-1.6
13,HMRDLITYVVQINGKLRGKLEVAPDTDPEELKALALEVENVKRSLEGWVVKKVIVVPGKMVSIAAG,-0.193
14,HMNDITVNVEDSKLIVTSNNPEKLPLYIMDIQGHILDKSEITAGTYSFPISDRGTYIVRIGENVYKVI,0.0386
15,HMRNMRKLWIARINAAARMNDISYSKLMHGLKLANVEINRKMLSEMAIDDPKSFTALVETAKKALNG,-0.894
16,HMNPTTDFFKLEGIDATRILVFDQVGRQVAQFSQPAQQMDIQALPAGVYALRIENADGQVYSARIVK,-0.16
17,HMLGVKKFGGEAVIAGNIILRQRGTKWITGSNVGIGKDHTLFAKIEGYVVFERMRGRDGQQQISIYP,-0.101
18,HMGPLPIDSRYFNNLVPYTGITHVNSVIPEAERHIGLTVVVKTGSTYSEYWYRTGVTNSSLELKT,-0.634
19,HMGGSDIYLGAFNIPQGSVRVTSGGQALTEGKDFTIDYNLGSVKIINQAILNSGIPVSVSYENNAG,0.123
20,HMSIQQEATGNRIRELLLNNGYTVKDIQEVMGFENPQAVYKWLSGKSLPNLDNLLILSKVLHTSIEDILV,-0.699
21,HMFPELSPEEQLIVEVLSKTNDLQVNLISVKTNIDISRLTSLLFTLEMKGVIKTFAGGMYHLL,-0.538
22,HMTTRLLTPRQRQVFDIAIREGFYDSPRRISLTELADLLGVAKSTLSVQLQRVESTIVHTFSEEIRRRS,-2.57
23,HMSVKSVSLRKISYKVRRGDSLYNIAKNFSLSINDITHWNSINKKSYLQPGQRLTLYINPRN,-1.71
24,HMEVHLMPGTVLLREYESNEYRVTVTPEGFYDLNGKVFKSLSAVARHITGVNWSGPRFFGVEP,-2.08
25,HMNAPKKPLSAYFLFSQEERLKVKAENPDYSITEVAKELGKRWATLNPDIKTVYEQRYQDARRIYETEMNT,-0.303
26,HMSGQKDVPDLYGMTVKQAKKEVEAAGFKLKEGKEVYSNDYSKGQIAEQDPESGSKAKKGSSITVHVSKG,0.0677

row,Sequence,soluble fraction (log2)
1,HMDKDTFGEFENVKLTEEEYNKLVEKLGENNTKLMIEELSTGIASKGYKYKSHYATILSWSRRRVTKLQER,0.0444
2,HMSYTDIILKMSNVNFLTKVNFTNSEKNKNIKNGNFLIKKGKNRITAAFDYKDNELVISKSNLRNTFL,-0.381
3,HMAWAVDVGVVGLFPGKAVLVIDGGAPRTVPVGANVGGVRLLAVDQGSATVEIGGKRQRLAIGQHAH,-0.402
4,HMGPGSYVVNVKPYAYVSINGRDYGRTPVGPIRLDPGTYKVVFTHEHRPSFSRTIVVEAGRETFETFPYPG,-0.29
5,HMRLEYLVDVEEISIKEYLMLLGLSRRLARKIKLYGKMYINHQEAFNYHLVKKGDLLTIEFDE,-2.55
6,HMLIDSNNYFFYKVKPKEGFYSLQKKLGVNRSEIEKHNPSLINEVLKEGMILKIPKYLLNFDLN,-0.297
7,HMIPDLPAIGENLYRERKRQQLSMAELAAASGISKAMLSQIEADKVNPTIATLWKIAHALHVDLESLISGG,-0.578
8,HMSKNTFIGNIDDKELYVGSGRYGPFMLYDGKFTNITRYLSDESKELTDITIDDYSKIVNNARPK,-0.101
9,HMEGRHFRILYILLNNERVTAPELAEEFGVSVRTIYRDIDTMSAAGIPIYMQGGRKGGIYLLEGY,-1.16
10,HMDDTRLELTLLGKIHNDEEINKQSHINVNIKNGVILLTGESPRREITERILTLARTFEHTRQIVNQIAT,0.116
11,HMTLTLEQAAAIKNSEGEQYGKIESERLAAMSVQIDKAIKSNGHDPNKKADLERKLDAIGIILNARAAG,0.122
12,HMEDAWMKKELWDAIATLPKKQRLVMTMRLTNNHSYKEIAAILGISENSAKVSYHHAVERLKEKFK,-1.33
13,HMKVTGSVQKKKGYYYIVVRLPTKNGTQYEQKQKWFNTKLKATPRNKTAAQVILAEKLTEYGGIV,-2.8
14,HMTGSLRVTSSPSGAEIYVDEIYRGYTPLTIGSLSTGRHEVRLHLSGYQDYTRTVEIESGSQSSFSVTLT,0.0152
15,HMGSFISADEALAKALSHAGLDQSAIRELEMDSELDDDVPHYSIDFKSGNLEYEYEISATDGSVLKFEQD,0.105
16,HMVSNRMVYSDFQQKWINNQVESINVNADKMTIEVTTQDEKKYTVYAPSSMIEFLNEQYPKDDIKIEYVAP,-0.147
17,HMDIEELLSRSTDRLSRQTEIRRLLADAQGRPNISSLARRFKVARRTVIRDLQELIRRGEVPPEIYPK,-0.744
18,HMQMMDATLKIPPSMGKLRGTLYELNSVTSEDVDENGQLALHVRLSSVDWQRLKKRFDSNLDELIVQKN,-0.0668
19,HMTIKLFPNPSTDFIRVSELSAKENYKIYTILGSEIKRGSVSNNETIDIRNLNSGVYLLKFDNGTTKKIVK,-0.886
20,HMEMTGAHLRKKIRAKGFTFQQIADAIGESKQNLSQILSTNNIKTGTLERIAAAMGESVSYF,-0.191
21,HMQIIGEQNQKDFIALFGAILRMRNLLLSFDEFKGNELISERDLQDYLGRYQDLRDEWRNKRRER,0.0518
22,HMDAYMGEAKDEETFAEEYLNDSGLLNEIPESVARYFDIVAYARDLLIGDFSLHDGHVFNMT,-0.0437
23,HMGLLGIYPNPVEGGSVRLLSDADLFGSRFELYDQSGKLVLNGFVTEGNFVSVKGISSGLYISVSYT,0.0024
24,HMEDIAAIAQRIQGLRDIVGISVEEMAKALDISEQEYREYEKGETDFSFSFLYTVANVLGINITDLI,-0.709
